According to patent publication US20120134993A1 (ZymoGenetics, published 2012):
Changes are numbered by the printed parent chain. In names and notes the source's numbering stands.

T1: recombinant human FGF4 (human, UniProt P08620 31-206, limits assumed)
T1 sequence (looked up): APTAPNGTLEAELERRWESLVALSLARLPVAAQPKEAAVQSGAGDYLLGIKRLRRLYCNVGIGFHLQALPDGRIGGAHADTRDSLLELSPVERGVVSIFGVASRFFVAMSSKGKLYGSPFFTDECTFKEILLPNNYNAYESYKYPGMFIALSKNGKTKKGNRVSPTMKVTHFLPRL

T2: recombinant human FGF6 (human, UniProt P10767 83-208, limits assumed)
T2 sequence (looked up): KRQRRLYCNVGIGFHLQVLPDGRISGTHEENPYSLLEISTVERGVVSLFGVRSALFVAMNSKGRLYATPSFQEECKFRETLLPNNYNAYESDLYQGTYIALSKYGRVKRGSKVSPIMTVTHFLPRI

B1: FGFR3IIIc(23-375)(S249W) Fc5, full-length FGFR3-Fc S249W (A2256F) (Fc fusion)
chain: ESLGTEQRVVGRAAEVPGPEPGQQEQLVFGSGDAVELSCPPPGGGPMGPTVWVKDGTGLVPSERVLVGPQRLQVLNASHEDSGAYSCRQRLTQRVLCHFSVRVTDAPSSGDDEDGEDEAEDTGVDTGAPYWTRPERMDKKLLAVPAANTVRFRCPAAGNPTPSISWLKNGREFRGEHRIGGIKLRHQQWSLVMESVVPSDRGNYTCVVENKFGSIRQTYTLDVLERWPHRPILQAGLPANQTAVLGSDVEFHCKVYSDAQPHIQWLKHVEVNGSKVGPDGTPYVTVLKTAGANTTDKELEVLSLHNVTFEDAGEYTCLAGNSIGFSHHSAWLVVLPAEEELVEADEAGSVYAGEPKSSDKTHTCPPCPAPEAEGAPSVFLFPPKPKDTLMISRTPEVTCVVVDVSHEDPEVKFNWYVDGVEVHNAKTKPREEQYNSTYRVVSVLTVLHQDWLNGKEYKCKVSNKALPSSIEKTISKAKGQPREPQVYTLPPSRDELTKNQVSLTCLVKGFYPSDIAVEWESNGQPENNYKTTPPVLDSDGSFFLYSKLTVDKSRWQQGNVFSCSVMHEALHNHYTQKSLSLSPGK
notes: also called FGFR3 A2256F; FGFR3A2256F
B2: recombinant human FGF-8b (ligand, UniProt P55075-3 23-215, looked up)
chain: QVTVQSSPNFTQHVREQSLVTDQLSRRLIRTYQLYSRTSGKHVQVLANKRINAMAEDGDPFAKLIVETDTFGSRVRVRGAETGLYICMNKKGKLIAKSNGKGKDCVFTEIVLENNYTALQNAKYEGWYMAFTRKGRPRKGSKTRQHQREVHFMKRLPRGHHTTEQSLRFEFLNYPPFTRSLRGSQRTWAPEPR
B3: FGFR2alphaIIIc(145-377) Fc5, truncated FGFR2-Fc (A2559F) (Fc fusion)
chain: SENSNNKRAPYWTNTEKMEKRLHAVPAANTVKFRCPAGGNPMPTMRWLKNGKEFKQEHRIGGYKVRNQHWSLIMESVVPSDKGNYTCVVENEYGSINHTYHLDVVERSPHRPILQAGLPANASTVVGGDVEFVCKVYSDAQPHIQWIKHVEKNGSKYGPDGLPYLKVLKAAGVNTTDKEIEVLYIRNVTFEDAGEYTCLAGNSIGISFHSAWLTVLPAPGREKEITASPDYLEEPKSSDKTHTCPPCPAPEAEGAPSVFLFPPKPKDTLMISRTPEVTCVVVDVSHEDPEVKFNWYVDGVEVHNAKTKPREEQYNSTYRVVSVLTVLHQDWLNGKEYKCKVSNKALPSSIEKTISKAKGQPREPQVYTLPPSRDELTKNQVSLTCLVKGFYPSDIAVEWESNGQPENNYKTTPPVLDSDGSFFLYSKLTVDKSRWQQGNVFSCSVMHEALHNHYTQKSLSLSPGK
notes: also called FGFR2A2559F; FGFR2 A2559F
B4: FGFR2alphaIIIc(145-377)(P253R) Fc5, truncated FGFR2-Fc P253R (A2561F) (Fc fusion)
chain: B3 chain with P109R
notes: also called FGFR2 A2561F; construct #1950
B5: recombinant human FGF-17 (ligand, UniProt O60258 23-216, looked up)
chain: TQGENHPSPNFNQYVRDQGAMTDQLSRRQIREYQLYSRTSGKHVQVTGRRISATAEDGNKFAKLIVETDTFGSRVRIKGAESEKYICMNKRGKLIGKPSGKSKDCVFTEIVLENNYTAFQNARHEGWFMAFTRQGRPRQASRSRQNQREAHFIKRLYQGQLPFPNHAEKQKQFEFVGSAPTRRTKRTRRPQPLT

Key:
[1] = target: recombinant human FGF1 (human, UniProt P05230 16-155); assay: cell-based or functional assay
[2] = target: recombinant human FGF2 (human, UniProt P09038 143-288, limits assumed); assay: cell-based or functional assay
[3] = target: T1, recombinant human FGF4; assay: cell-based or functional assay
[4] = target: T2, recombinant human FGF6; assay: cell-based or functional assay
[5] = target: B2; assay: cell-based or functional assay
[6] = target: human FGF-9 (human, UniProt P31371 4-208); assay: cell-based or functional assay
[7] = target: B5; assay: direct binding ELISA, FGF-17 coated, FGFR-Fc titrated with heparin, anti-human Fc-HRP
Experimental: (§1) To determine the binding capability of FGFR-Fc to their respective ligands, an ELISA was run. Recombinant human FGF-8b or FGF-17 (R&D Systems) was plated at 100 nM on a Nunc Maxisorp 96-well plate for 1 h at room temperature with shaking. The plates were blocked with BLOTTO (Thermo Fisher Scientific, Rockford, Ill.) for 1 h at room temperature, then washed 5 times with ELISA C buffer (137 mM NaCl, 2.7 mM KCl, 7.2 mM Na₂HPO₄, 1.5 mM KH₂PO₄, 0.05% (v/w) polysorbate 20, pH 7.2). FGFR-Fcs were diluted to 100 nM with PBS/0.1×BLOTTO/10 ug/ml porcine heparin (Sigma, St. Louis, Mo.) and then 1:2 serial dilutions were made, ending at 0.10 nM. 100 μL of FGFR-Fcs were plated and incubated at 4° C. overnight. The following day, the plates were washed 5 times with ELISA C and then incubated with 2.5 μg/mL horseradish peroxidase-conjugated anti-human Fc antibody (Jackson ImmunoResearch Laboratories, West Grove, Pa.) for 1 h at room temperature with shaking. After 5 washes with ELISA C, 100 μL of OPD in citrate buffer (5 mg of o-phenylenediamine in 63 mM sodium citrate, 37 mM citric acid, pH 5.0, 0.03% H₂O₂) was added for detection. After 2-5 minutes, the reaction was stopped with 1 N H₂SO₄. The plates were read at 490 nm using SoftMaxPro software.

[8] = target: B2; assay: direct binding ELISA, FGF-8b coated, FGFR-Fc titrated with heparin, anti-human Fc-HRP
Experimental: as §1

[9] = target: T2, recombinant human FGF6; assay: SPR (Biacore T100), FGFR-Fc captured on protein A, FGF6 analyte with heparin, bivalent analyte model (KA1)
Experimental: (§2) Materials and Methods: Binding kinetics and affinity studies were performed on a Biacore T100™ system (GE Healthcare, Piscataway, N.J.). Methods for the Biacore T100™ were programmed using Biacore T100™ Control Software, v 2.0. Since each of the FGF receptor molecules contained a human Fc domain, biotinylated protein-A (Thermo Fisher Scientific Inc, Rockford, Ill.) was used as a capture reagent for these studies. Biotinylated protein-A was diluted to concentration of 50 μg/mL in HBS-EP buffer (10 mM HEPES, 150 mM NaCl, 3 mM EDTA, 0.05% Surfactant P20; GE Healthcare, Piscataway, N.J.), and then captured to all four flow cells of a SA (streptavidin) sensor chip. A density of approximately 1100 RU was obtained for each flow cell. Each FGF receptor molecule was subsequently captured via protein-A onto a separate flow cell of the SA chip at an approximate density of 150-250 RU. The Biacore instrument measures the mass of protein bound to the sensor chip surface, and thus, capture of the receptor was verified for each cycle.
(§3) For kinetic binding studies, serial 1:5 dilutions of FGF ligands were prepared from 200 nM-0.06 nM. These samples were injected over the surface and allowed to specifically bind to the FGF receptor captured on the sensor chip. Injections of each ligand concentration were performed with an association time of 7 minutes and dissociation time of 15 minutes. Kinetic binding studies were performed with a flow rate of 50 μL/min. All binding experiments were performed at 25° C. in HBS-P buffer (10 mM HEPES, 150 mM NaCl, 0.05% Surfactant P20, pH 7.4; GE Healthcare, Piscataway, N.J.), containing 50 μg/mL heparin (Calbiochem, La Jolla, Calif.).
(§4) Between cycles, the flow cell was washed with 20 mM hydrochloric acid to regenerate the surface. This wash step removed both the captured FGF receptor and any bound FGF ligand from the protein-A surface, and allowed for the subsequent binding of the next test sample. Data was compiled using the Biacore T100™ Evaluation software (version 2.0). Data was processed by subtracting reference flow cell and blank injections. Baseline stability was assessed to ensure that the regeneration step provided a consistent binding surface throughout the sequence of injections. Duplicate injection curves were checked for reproducibility. Binding curves were globally fit to the bivalent analyte model.

[10] = target: T2, recombinant human FGF6; assay: SPR (Biacore T100), FGFR-Fc captured on protein A, FGF6 analyte with heparin, bivalent analyte model (KD1)
Experimental: as §2, §3, §4

[11] = target: T2, recombinant human FGF6; assay: SPR (Biacore T100), FGFR-Fc captured on protein A, FGF6 analyte with heparin, bivalent analyte model (ka1)
Experimental: as §2, §3, §4

[12] = target: T2, recombinant human FGF6; assay: SPR (Biacore T100), FGFR-Fc captured on protein A, FGF6 analyte with heparin, bivalent analyte model (kd1)
Experimental: as §2, §3, §4

[13] = target: T3, human FGFR4-Fc (R&D Systems) (human, UniProt P22455 22-369); assay: ELISA: FGF-8b coated at 100 nM, FGFR-Fc 100 to 0.10 nM in 1:2 steps with 10 ug/ml heparin, anti-human Fc-HRP, OD 490 nm
T3 construct: Bought; also called FGFR4 (R&D systems); R&D FGFR4; not shown: Fc of the commercial fusion; not described
Experimental: as §1

[14] = target: B5; assay: ELISA: FGF-17 coated at 100 nM, FGFR-Fc 100 to 0.10 nM in 1:2 steps with 10 ug/ml heparin, anti-human Fc-HRP, OD 490 nm
Experimental: as §1

[15] = target: T3, human FGFR4-Fc (R&D Systems); assay: as above
Experimental: as §1

Chain of recombinant human FGF1 (P05230 16-155 limits assumed): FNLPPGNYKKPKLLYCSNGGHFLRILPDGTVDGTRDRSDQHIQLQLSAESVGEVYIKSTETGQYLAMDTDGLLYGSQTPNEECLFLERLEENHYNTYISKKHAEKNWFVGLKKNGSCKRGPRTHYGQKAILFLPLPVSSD
Chain of recombinant human FGF2 (P09038 143-288 limits assumed): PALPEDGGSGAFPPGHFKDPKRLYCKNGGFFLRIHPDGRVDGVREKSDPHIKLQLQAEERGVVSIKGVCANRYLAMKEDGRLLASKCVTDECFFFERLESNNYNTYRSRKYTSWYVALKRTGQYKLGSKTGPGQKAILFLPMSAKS

Binder: B1
- IC50, FGF-stimulated HUVEC proliferation (3H-thymidine) [1]: 0.82 nM
- IC50, FGF-stimulated HUVEC proliferation (3H-thymidine) [2]: 1 nM
- IC50, FGF-stimulated HUVEC proliferation (3H-thymidine) [3]: 0.74 nM
- IC50, FGF-stimulated HUVEC proliferation (3H-thymidine) [4]: 0.95 nM
- Proliferation IC50, FGF8b-stimulated LNCap cells (3H-thymidine) [5]: 0.01 nM
- Proliferation IC50, FGF-9-stimulated HCO osteoblasts (3H-thymidine) [6]: 0.84 nM
- IC50 [7]: 8.66 nM
- IC50 [8]: 37.7 nM
- Ka [9]: 1e+09 M⁻¹
- Kd [10]: 0.8 nM
- kon [11]: 600000 M⁻¹ s⁻¹
- koff [12]: 0.0005 s⁻¹

Binder: B2
- binding result [13]: binds

Binder: B3
- binding result [14]: no binding (tested: 100 nM)

Binder: B4
- binding result [14]: no binding (tested: 100 nM)

Binder: B5
- binding result [15]: binds
